Source: the supplement of paper PMC6757056
± gives the standard deviation of the averaged measurements.

B1: library; a variant is named by its letters at N, in order (parent)
chain: GCUGUCACCGGUGCUUGGUACGUUAUAUUCAGCCGGUCUGAUGAGUCUNNNNNNAGACGAAACAGC

Legend:
[1] = variants of: B1; assay: FACS-Seq fitted mean relative fluorescence mCherry/BFP without ligand (log10 relative fluorescence); HEK293T overexpressing SLC46A1; higher = higher reporter protein expression; settings: without (6R,S)-folinic acid; ligand present: no
Outline: (§1)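 Sorting into 6 bins by mCherry/BFP followed 48 h of incubation with or without ligand. The cells were enriched HEK293T libraries lentivirally bearing an mCherry reporter with the ribozyme switch and an EF1α-BFP marker, and bin genomic DNA was PCR-amplified, barcoded and sequenced on MiSeq. Fluorescence is the fitted normal mean of the bin counts. Means were fitted on log10(mCherry/BFP), scaled to five spiked-in control ribozymes.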

[2] = variants of: B1; assay: normalized RNA/DNA level without ligand (relative to sTRSVctl = 100) (log10 (% of sTRSVctl)); HEK293T overexpressing SLC46A1; higher = less ribozyme self-cleavage, higher mRNA level; settings: without (6R,S)-folinic acid; ligand present: no
Method: (§2)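 Hammerhead (sTRSV) ribozyme switch libraries with a ligand aptamer grafted on stem I and a randomized N4-6 loop II, cloned into the 3' UTR of mCherry and transiently transfected into HEK293T cells; RNA-Seq 72 h post transfection with ligand added 1 h before transfection; RNA read count / plasmid DNA read count normalized to the non-cleaving sTRSVctl (x100), log10; sequences with >100 DNA reads. FACS-Seq: lentiviral library sorted into 6 bins after 48 h ligand, log-normal fit mean of mCherry/BFP scaled to controls. Printed sequences are partial switch sequences.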

[3] = variants of: B1; assay: FACS-Seq fitted mean relative fluorescence mCherry/BFP with ligand (log10 relative fluorescence); HEK293T overexpressing SLC46A1; ligand concentration (+) FACS-Seq: 6 mM; higher = higher reporter protein expression; settings: with (6R,S)-folinic acid; ligand present: yes
Outline: as §1

[4] = variants of: B1; assay: normalized RNA/DNA level with ligand (relative to sTRSVctl = 100) (log10 (% of sTRSVctl)); HEK293T overexpressing SLC46A1; ligand concentration (+) RNA-Seq: 6 mM; higher = less ribozyme self-cleavage, higher mRNA level; settings: with (6R,S)-folinic acid; ligand present: yes
Method: as §2

Variant | FACS-Seq fitted mean (log10) [1] | normalized RNA/DNA level without ligand (log10) [2] | FACS-Seq fitted mean (log10) [3] | normalized RNA/DNA level with ligand (log10) [4]
GAUAGG | 0.0382 ± 0.037 | 1.921 ± 0.013 | 0.234 ± 0.004 | 2.01 ± 0.022
GAUAGC | 0.145 ± 0.061 | 1.962 ± 0.017 | 0.257 ± 0.081 | 2.022 ± 0.015
GAUAGU | 0.846 ± 0.085 | 1.963 ± 0.018 | 0.563 ± 0.078 | 2 ± 0.022
GAUAGA | 0.454 ± 0.051 | 1.959 ± 0.0082 | 0.537 ± 0.22 | 2 ± 0.021
UAUCAU | 0.312 ± 0.043 | 1.954 ± 0.0086 | -0.0472 ± 0.12 | 1.99 ± 0.041
UAUCAA | 0.142 ± 0.016 | 1.957 ± 0.019 | 0.277 ± 0.084 | 2 ± 0.053
UAUCAG | 0.285 ± 0.25 | 1.84 ± 0.024 | 0.328 ± 0.29 | 1.95 ± 0.025
UAUACU | 0.4 ± 0.2 | 1.9765 ± 0.0012 | 0.253 ± 0.07 | 1.99 ± 0.015
UAUACG | 0.496 ± 0.089 | 1.76 ± 0.018 | 0.905 ± 0.26 | 1.96 ± 0.02
UAUACC | 0.255 ± 0.057 | 2.011 ± 0.0036 | 0.126 ± 0.21 | 2.018 ± 0.014
UAUAAG | 0.158 ± 0.15 | 1.688 ± 0.0045 | 0.476 ± 0.26 | 1.93 ± 0.027
UAUAAU | 0.283 ± 0.048 | 1.941 ± 0.0058 | 0.412 ± 0.033 | 1.996 ± 0.016
UAUAAA | 0.216 ± 0.075 | 1.92 ± 0.0034 | 0.0605 ± 0.19 | 1.97 ± 0.022
AAUAUA | 0.602 ± 0.02 | 1.95 ± 0.0055 | 0.4362 ± 0.00063 | 1.99 ± 0.039
AAUAUG | 0.207 ± 0.053 | 1.895 ± 0.0025 | 0.137 ± 0.061 | 1.99 ± 0.034
AAUAUU | 0.567 ± 0.082 | 1.981 ± 0.011 | 0.295 ± 0.01 | 1.99 ± 0.029
AAUAUC | 0.448 ± 0.061 | 2.03 ± 0.042 | 0.348 ± 0.12 | 2.02 ± 0.048
CAGUUC | -0.0369 ± 0.035 | 2.027 ± 0.017 | -0.16 ± 0.081 | 1.983 ± 0.019
CAGUUA | 0.197 ± 0.022 | 1.95 ± 0.02 | 0.573 ± 0.13 | 1.99 ± 0.038
GAUAAA | 0.3694 ± 0.0011 | 1.956 ± 0.0085 | 0.397 ± 0.027 | 2 ± 0.034
GAUAAU | 0.0792 ± 0.026 | 1.97 ± 0.02 | 0.23 ± 0.02 | 2.01 ± 0.037
GAUAAC | 0.223 ± 0.036 | 1.972 ± 0.012 | 0.5 ± 0.022 | 2.01 ± 0.014
GAUAUG | 0.0919 ± 0.075 | 1.919 ± 0.005 | 0.0285 ± 0.14 | 2 ± 0.038
GAUAUA | 0.295 ± 0.015 | 1.96 ± 0.005 | 0.482 ± 0.11 | 2 ± 0.028

Variant | FACS-Seq fitted mean (log10) [1] | normalized RNA/DNA level without ligand (log10) [2] | FACS-Seq fitted mean (log10) [3] | normalized RNA/DNA level with ligand (log10) [4]
CAUAUC | -0.161 ± 0.056 | 2.078 ± 0.0032 | -0.426 ± 0.011 | 2.03 ± 0.034
CAUAUU | 0.434 ± 0.11 | 1.982 ± 0.0059 | 0.246 ± 0.17 | 1.98 ± 0.025
CAUAUG | 0.419 ± 0.028 | 2.026 ± 0.0042 | 0.496 ± 0.28 | 2.01 ± 0.023
CAGUAA | 0.289 ± 0.13 | 1.955 ± 0.0021 | 0.23 ± 0.14 | 1.99 ± 0.023
AAUCAG | 0.0995 ± 0.041 | 1.969 ± 0.0032 | 0.228 ± 0.25 | 2.02 ± 0.045
AAGUCG | -0.00669 ± 0.0044 | 1.978 ± 0.0045 | 0.183 ± 0.19 | 2.0217 ± 0.00076
UAUAGC | 0.469 ± 0.011 | 1.943 ± 0.018 | 0.395 ± 0.19 | 1.98 ± 0.036
UAUAGA | 0.233 ± 0.082 | 1.911 ± 0.003 | 0.417 ± 0.064 | 1.989 ± 0.013
UAUAGG | 0.0298 ± 0.024 | 1.58 ± 0.029 | 0.514 ± 0.24 | 1.92 ± 0.02
AAUAAA | -0.274 ± 0.037 | 1.971 ± 0.009 | -0.301 ± 0.1 | 2 ± 0.025
AAUAAU | 0.5328 ± 0.0041 | 1.968 ± 0.0071 | 0.56 ± 0.14 | 2.003 ± 0.011
AAUAAG | 0.271 ± 0.2 | 1.9 ± 0.024 | 0.323 ± 0.13 | 1.98 ± 0.038
AAUAAC | 0.221 ± 0.049 | 1.979 ± 0.0049 | 0.377 ± 0.048 | 1.99 ± 0.035
GAGUAC | 0.375 ± 0.091 | 1.952 ± 0.012 | 0.311 ± 0.16 | 2 ± 0.033
GAGUAA | 0.434 ± 0.18 | 1.9346 ± 0.0017 | 0.44 ± 0.3 | 1.99 ± 0.029
GAGUAG | 0.282 ± 0.0024 | 1.936 ± 0.017 | 0.0667 ± 0.095 | 1.99 ± 0.034
UAGUUG | 0.194 ± 0.067 | 1.768 ± 0.016 | 0.229 ± 0.0032 | 1.96 ± 0.021
AAGUAG | 0.445 ± 0.099 | 1.89 ± 0.021 | 0.443 ± 0.18 | 1.987 ± 0.018
AAGUAA | 0.225 ± 0.044 | 1.94 ± 0.021 | 0.18 ± 0.26 | 2 ± 0.043
CAUAAA | 0.548 ± 0.05 | 1.9396 ± 0.0016 | 0.402 ± 0.075 | 1.96 ± 0.033
CAUAAU | 0.15 ± 0.15 | 1.955 ± 0.011 | 0.294 ± 0.038 | 1.997 ± 0.013
CAUAAC | 0.339 ± 0.16 | 1.973 ± 0.0067 | 0.355 ± 0.045 | 1.97 ± 0.038
UAGUGG | -0.0676 ± 0.055 | 1.56 ± 0.021 | 0.623 ± 0.023 | 1.89 ± 0.046
UAGUGC | 0.371 ± 0.0073 | 1.949 ± 0.011 | 0.493 ± 0.034 | 2 ± 0.051

Variant | FACS-Seq fitted mean (log10) [1] | normalized RNA/DNA level without ligand (log10) [2] | FACS-Seq fitted mean (log10) [3] | normalized RNA/DNA level with ligand (log10) [4]
AAGUUG | 0.479 ± 0.061 | 1.914 ± 0.013 | 0.582 ± 0.24 | 2.02 ± 0.054
AAGUUA | 0.382 ± 0.14 | 1.973 ± 0.0048 | 0.443 ± 0.016 | 2.01 ± 0.031
AAUAGG | 0.164 ± 0.037 | 1.877 ± 0.0074 | 0.334 ± 0.2 | 1.99 ± 0.028
AAUAGU | 0.361 ± 0.12 | 1.928 ± 0.0047 | 0.623 ± 0.097 | 1.978 ± 0.018
AAUAGA | 0.354 ± 0.04 | 1.96 ± 0.024 | 0.344 ± 0.043 | 2.01 ± 0.034
GAGUCC | 0.0836 ± 0.051 | 2.04 ± 0.027 | 0.569 ± 0.064 | 2.04 ± 0.03
GAGUCA | -0.101 ± 0.0028 | 1.998 ± 0.011 | -0.24 ± 0.16 | 2.01 ± 0.0086
AAUCCA | 0.639 ± 0.012 | 1.995 ± 0.015 | 0.486 ± 0.014 | 1.99 ± 0.029
AAUACU | 0.3 ± 0.014 | 1.995 ± 0.017 | 0.384 ± 0.13 | 1.99 ± 0.026
AAUACC | 0.72 ± 0.071 | 2.028 ± 0.004 | 0.469 ± 0.062 | 2.03 ± 0.031
UAUAUG | 0.194 ± 0.045 | 1.75 ± 0.018 | 0.678 ± 0.12 | 1.97 ± 0.035
UAGUAG | 0.108 ± 0.076 | 1.68 ± 0.011 | 0.525 ± 0.14 | 1.93 ± 0.036
UAGUAU | 0.347 ± 0.059 | 1.931 ± 0.0038 | 0.553 ± 0.11 | 2.006 ± 0.018
UAGUAA | 0.0937 ± 0.063 | 1.937 ± 0.009 | 0.531 ± 0.11 | 1.995 ± 0.016
AAGUGU | 0.173 ± 0.16 | 1.94 ± 0.015 | 0.597 ± 0.37 | 2.01 ± 0.029
AAGUGA | 0.288 ± 0.021 | 1.952 ± 0.003 | 0.42 ± 0.11 | 2.03 ± 0.021
GAGUUG | 0.407 ± 0.032 | 1.968 ± 0.0093 | 0.387 ± 0.15 | 2.03 ± 0.039
GAUACA | 0.251 ± 0.036 | 1.974 ± 0.0043 | 0.585 ± 0.09 | 1.98 ± 0.047
GAUACG | 0.356 ± 0.069 | 1.9665 ± 0.00032 | 0.274 ± 0.0064 | 2 ± 0.0056
CAGUCG | 0.4924 ± 0.0036 | 2.022 ± 0.01 | 0.422 ± 0.19 | 2.037 ± 0.018
GAGUGA | 0.213 ± 0.11 | 1.96 ± 0.023 | 0.443 ± 0.15 | 2 ± 0.043
GAGUGC | 0.283 ± 0.14 | 1.944 ± 0.0043 | 0.338 ± 0.15 | 2.03 ± 0.039
GAGUGU | 0.00433 ± 0.11 | 1.97 ± 0.01 | 0.322 ± 0.027 | 2.04 ± 0.025
GAGUGG | 0.427 ± 0.07 | 1.914 ± 0.0062 | 0.493 ± 0.18 | 2.01 ± 0.046
